From US20240117030A1 (Pfizer, published 2024)
Residue numbers refer to the chain shown, from its start. Each block holds one binder with its values, some of them ahead of it.

Legend:
Assay in all cases: cell-based or functional assay
[1] = target: human IL-13 (human, UniProt P35225 35-146)
[2] = target: T1, human IL-4 (human, UniProt P05112 25-153)
T1 sequence (looked up): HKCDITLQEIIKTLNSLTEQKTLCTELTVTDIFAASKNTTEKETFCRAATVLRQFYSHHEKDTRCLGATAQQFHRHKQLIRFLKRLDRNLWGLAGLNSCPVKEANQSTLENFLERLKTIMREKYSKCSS

[3] = target: T2, human IL-4 (human, UniProt P05112 25-153); remark: listed apart in the source
T2 sequence (looked up): T1 sequence (looked up)

[4] = target: T3, recombinant human IL-33 (R&D Systems 3625-IL), reduced with DTT (human, UniProt O95760 112-270, limits assumed)
T3 sequence (looked up): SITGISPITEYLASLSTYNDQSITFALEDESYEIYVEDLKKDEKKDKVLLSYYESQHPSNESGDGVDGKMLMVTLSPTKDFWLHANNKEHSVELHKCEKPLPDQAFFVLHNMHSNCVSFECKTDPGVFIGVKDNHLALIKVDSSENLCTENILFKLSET

human IL-13, sequence (P35225 35-146 limits assumed): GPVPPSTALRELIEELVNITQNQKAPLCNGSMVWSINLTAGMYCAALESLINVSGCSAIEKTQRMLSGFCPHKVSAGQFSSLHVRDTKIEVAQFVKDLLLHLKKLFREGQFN

a-hIL-13 bioassay (IC50, pM) [1]: 5.79 pM
B1: IL13-0001 (antibody, human IgG1, kappa, V domains shown)
VH: EVQLVESGGGLVQPGGSLRLSCAASGFTFSSYAMSWVRQAPGKGLEWVASISSGDTTYYPDSVKGRFTISRDNAKNSLYLQMNSLRAEDTAVYYCARNEGYYFGLTLWGQGTLVTVSS
VL: DIQMTQSPSSLSASVGDRVTITCKASESVDHFGWSLVHWYQQKPGKAPKLLIYRASNLESGVPSRFSGSGSGTDFTLTISSLQPEDFATYYCQQSNEDPWTFGGGTKVEIKR

fold loss in IL-4 neutralization (CD23 bioassay) relative to IL13433-0006 [2]: ~6.5 fold
B2: IL13433-0607 (trispecific antibody, human IgG1, kappa)
heavy: EVQLVESGGGLVQPGGSLRLSCAASGFTFSSYAMSWVRQAPGKGLEWVASISTGDTTYYPDSVKGRFTISRDNAKNSLYLQMNSLRAEDTAVYYCARNEGYYFGLTQWGRGTLVTVSSASTKGPSVFPKAPSSKSTSGGTAALGCLVKDYFPEPVTVSWNSGALTSGVHTFPAVLQSSGLYSLSSSVTVPSSSLGTQTYICNVNHKPSNTKVDKKVEPKSCDKTHTCPPCPAPEAAGAPSVFLFPPKPKDTLMISRTPEVTCVVVDVSHEDPEVKFNWYVDGVEVHNAKTKPREEQYNSTYRVVSVLTVLHQDWLNGKEYKCKVSNKALPAPIEKTISKAKGQPREPQVCTLPPSREEMTKNQVSLWCLVKGFYPSDIAVEWESNGQPENNYKTTPPVLDSDGSFFLYSKLTVDKSRWQQGNVFSCSVLHEALHSHYTQKSLSLSPGK
chain 1: DIQMTQSPSSLSASVGDRVTITCRASQPISKHLDWYQQKPGKAPKLLIYFTNNLQTGVPSRFSGSGSGTDFTLTISSLQPEDFATYYCFQYNQGWTFGGGTKVEIKRTVAAPSVFIFPPSDEQLKSGTASVVCLLNNFYPREAKVQWKVDNALQSGNSQESVTEQDSKDSTYSLSSTLTLSKADYEKHKVYACEVTHQGLSSPVTKSFNRGECGGGGSEVTLRESGPALVKPTQTLTLTCTFSGFSLSNFGEGLSWIRQPPGKGLEWLAHIYWDDDKRYSTSLKTRLTISKDTSRNQVVLTMTNMDPVDTATYYCARRETVFYWYFDVWGQGTTVTVSSASTKGPSVFPEAPSSKSTSGGTAALGCLVKDYFPEPVTVSWNSGALTSGVHTFPAVLQSSGLYSLGSVVTVPSSSLGTQTYICNVNHKPSNTKVDKKVEPKSCDKTHTCPPCPAPEAAGAPSVFLFPPKPKDTLMISRTPEVTCVVVDVSHEDPEVKFNWYVDGVEVHNAKTKPREEQYNSTYRVVSVLTVLHQDWLNGKEYKCKVSNKALPAPIEKTISKAKGQPREPQVYTLPPCREEMTKNQVSLSCAVKGFYPSDIAVEWESNGQPENNYKTTPPVLDSDGSFFLVSKLTVDKSRWQQGNVFSCSVLHEALHSHYTQKSLSLSPGK
light 1: DIQMTQSPSSLSASVGDRVTITCRASESVDHFGWSLVHWYQQKPGKAPKLLIYRADSLETGVPSRFSGSGSGTDFTLTISSLQPEDFATYYCQQSNEDPWTFGGGTKVEIKRTVAAPSVFIFPPSDEQLKSGTASVSCLLNNFYPREAKVQWKVDNALQSGNSQESVTEQDSKDSTYSLDSTLTLSKADYEKHKVYACEVTHQGLSSPVTKSFNRGEC
light 2: DIQMTQSPSSLSASVGDRVTITCRASQSVDEEGDSYMNWYQQKPGKAPKLLIYAASNLESGVPSRFSGSGSGTDFTLTISSLQPEDFATYYCQQSHKDPPTFGGGTKVEIKRTVAAPSVFIFPPSDEQLKSGTASVSCLLNNFYPREAKVQWKVDNALQSGNSQESVTEQDSKDSTYSLKSTLTLSKADYEKHKVYACEVTHQGLSSPVTKSFNRGEC
chain 2: EVQLVESGGGLVQPGGSLRLSCAASGFTFSSYWMYWVRQAPGKGLEWVAAITPNAGEDYYPESVKGRFTISRDNAKNSLYLQMNSLRAEDTAVYYCARGHYYYTSYSLGYWGQGTLVTVSSASTKGPSVFPLAPSSKSTSGGTAALGCLVKDYFPEPVTVSWNSGALTSGVHTFPAVLQSSGLYSLSSVVTVPSSSLGTQTYICNVNHKPSNTKVDKKVEPKSC

a-hIL-4 bioassay IC50, pM) [3]: 2.39 pM
B3: IL4-0002 (antibody, human IgG1, kappa)
heavy: EVTLRESGPALVKPTQTLTLTCTFSGFSLSNFGEGLSWIRQPPGKGLEWLAHIYWDDDKRYNPSLKSRLTISKDTSRNQVVLTMTNMDPVDTATYYCARRETVFYWYFDVWGQGTTVTVSSASTKGPSVFPLAPSSKSTSGGTAALGCLVKDYFPEPVTVSWNSGALTSGVHTFPAVLQSSGLYSLSSVVTVPSSSLGTQTYICNVNHKPSNTKVDKKVEPKSCDKTHTCPPCPAPEAAGAPSVFLFPPKPKDTLMISRTPEVTCVVVDVSHEDPEVKFNWYVDGVEVHNAKTKPREEQYNSTYRVVSVLTVLHQDWLNGKEYKCKVSNKALPAPIEKTISKAKGQPREPQVYTLPPSREEMTKNQVSLTCLVKGFYPSDIAVEWESNGQPENNYKTTPPVLDSDGSFFLYSKLTVDKSRWQQGNVFSCSVMHEALHNHYTQKSLSLSPGK
light: B2 light 2 with R24K, E32D, H96N, K97E, S137V, K180S

a-hIL-4 bioassay IC50, pM) [3]: 3.68 pM | a-hIL-13 bioassay (IC50, pM) [1]: 102 pM
B4: IL413TSLP-0250 (other)
heavy: B3 heavy with L132E, S187G, S358C, T370S, L372A, Y411V
chain 1: SYVLTQPPSVSVAPGQTARITCGGNNLGSKSVHWYQQKPGQAPVLVVYDDSDRPSWIPERFSGSNSGNTATLTISRGEAGDEADYYCQVWDSSSDHVVFGGGTKLTVLGQPKAAPSVTLFPPSSEELQANKATLVCLISDFYPGAVTVAWKADSSPVKAGVETTTPSKQSNNKYAASSYLSLTPEQWKSHRSYSCQVTHEGSTVEKTVAPTECSGGGGSEVQLVESGGGLVQPGGSLRLSCAASGFTFSSYAMSWVRQAPGKGLEWVASISSGDTTYYPDSVKGRFTISRDNAKNSLYLQMNSLRAEDTAVYYCARNEGYYFGLTLWGQGTLVTVSSASTKGPSVFPKAPSSKSTSGGTAALGCLVKDYFPEPVTVSWNSGALTSGVHTFPAVLQSSGLYSLSSSVTVPSSSLGTQTYICNVNHKPSNTKVDKKVEPKSCDKTHTCPPCPAPEAAGAPSVFLFPPKPKDTLMISRTPEVTCVVVDVSHEDPEVKFNWYVDGVEVHNAKTKPREEQYNSTYRVVSVLTVLHQDWLNGKEYKCKVSNKALPAPIEKTISKAKGQPREPQVCTLPPSREEMTKNQVSLWCLVKGFYPSDIAVEWESNGQPENNYKTTPPVLDSDGSFFLYSKLTVDKSRWQQGNVFSCSVMHEALHNHYTQKSLSLSPGK
light 1: B2 light 2 with R24K, E32D, H96N, K97E
light 2: B2 light 1 with R24K, D56S, S57N, T60S
chain 2: not shown

a-hIL-4 bioassay IC50, pM) [3]: 5.11 pM | a-hIL-13 bioassay (IC50, pM) [1]: 15.6 pM
B5: IL413TSLP-0248 (other)
heavy: B2 heavy with T53S, Q107L, R110Q, L429M, S435N
chain 1: SYVLTQPPSVSVAPGQTARITCGGNNLGSKSVHWYQQKPGQAPVLVVYDDSDRPSWIPERFSGSNSGNTATLTISRGEAGDEADYYCQVWDSSSDHVVFGGGTKLTVLGQPKAAPSVTLFPPSSEELQANKATLVCLISDFYPGAVTVAWKADSSPVKAGVETTTPSKQSNNKYAASSYLSLTPEQWKSHRSYSCQVTHEGSTVEKTVAPTECSGGGGSEVTLRESGPALVKPTQTLTLTCTFSGFSLSNFGEGLSWIRQPPGKGLEWLAHIYWDDDKRYNPSLKSRLTISKDTSRNQVVLTMTNMDPVDTATYYCARRETVFYWYFDVWGQGTTVTVSSASTKGPSVFPEAPSSKSTSGGTAALGCLVKDYFPEPVTVSWNSGALTSGVHTFPAVLQSSGLYSLGSVVTVPSSSLGTQTYICNVNHKPSNTKVDKKVEPKSCDKTHTCPPCPAPEAAGAPSVFLFPPKPKDTLMISRTPEVTCVVVDVSHEDPEVKFNWYVDGVEVHNAKTKPREEQYNSTYRVVSVLTVLHQDWLNGKEYKCKVSNKALPAPIEKTISKAKGQPREPQVYTLPPCREEMTKNQVSLSCAVKGFYPSDIAVEWESNGQPENNYKTTPPVLDSDGSFFLVSKLTVDKSRWQQGNVFSCSVMHEALHNHYTQKSLSLSPGK
light 1: B2 light 1 with R24K, D56S, S57N, T60S
light 2: B2 light 2 with R24K, E32D, H96N, K97E
chain 2: not shown

IC50 [nM] versus reduced human IL-33 (R&D), IC50 (AVE) [4]: 0.012 nM
B6: IL33-0713 (antibody, IgG1, V domains shown)
VH: EVQLVESGGGLVQPGGSLRLSCAASGFTFSSYWMYWVRQAPGKGLEWVAAITPNKGVDYYPESVKGRFTISRDNAKNSLYLQMNSLRAEDTAVYYCARGHYYYTSYSLGYWGQGTLVTVSS
VL: DIQMTQSPSSLSASVGDRVTITCRASQPISKHLDWYQQKPGKAPKLLIYFTKNLVTGVPSRFSGSGSGTDFTLTISSLQPEDFATYYCFQYNQGWTFGGGTKVEIK

IC50 [nM] versus reduced human IL-33 (R&D), IC50 (AVE) [4]: 0.009 nM
B7: IL33-0714 (antibody, IgG1, V domains shown)
VH: B6 VH
VL: B6 VL with V55K

IC50 [nM] versus reduced human IL-33 (R&D), IC50 (AVE) [4]: 0.012 nM
B8: IL33-0715 (antibody, IgG1, V domains shown)
VH: B6 VH
VL: B6 VL with V55Q, T56S
